These are literature values, as cited in PMC10825016.

Read-outs that look alike come from different tables or passages of the source.

Series [1] concerns the target GrpE (Escherichia coli) (UniProt P09372).
Series [2] shares this target. This is another data set of the same source.

Chain of DnaK (P0A6Y8 2-638): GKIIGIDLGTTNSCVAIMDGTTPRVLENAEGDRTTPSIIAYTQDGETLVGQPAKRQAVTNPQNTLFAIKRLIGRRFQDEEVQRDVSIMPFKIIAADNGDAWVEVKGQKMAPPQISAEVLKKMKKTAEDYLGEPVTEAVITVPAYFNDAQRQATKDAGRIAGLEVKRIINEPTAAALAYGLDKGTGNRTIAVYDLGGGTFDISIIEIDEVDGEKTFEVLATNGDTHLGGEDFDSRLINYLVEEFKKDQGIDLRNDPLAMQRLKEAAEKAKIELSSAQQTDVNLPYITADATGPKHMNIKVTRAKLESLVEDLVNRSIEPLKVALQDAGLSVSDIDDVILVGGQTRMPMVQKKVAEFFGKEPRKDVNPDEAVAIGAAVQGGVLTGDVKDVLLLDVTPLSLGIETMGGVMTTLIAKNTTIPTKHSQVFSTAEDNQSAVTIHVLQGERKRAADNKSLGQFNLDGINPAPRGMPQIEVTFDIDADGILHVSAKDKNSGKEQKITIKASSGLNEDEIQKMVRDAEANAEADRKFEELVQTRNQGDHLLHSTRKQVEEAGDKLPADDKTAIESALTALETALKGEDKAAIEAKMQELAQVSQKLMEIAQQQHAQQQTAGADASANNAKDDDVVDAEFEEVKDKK
Chain of GrpE (Escherichia coli) (P09372 whole entry): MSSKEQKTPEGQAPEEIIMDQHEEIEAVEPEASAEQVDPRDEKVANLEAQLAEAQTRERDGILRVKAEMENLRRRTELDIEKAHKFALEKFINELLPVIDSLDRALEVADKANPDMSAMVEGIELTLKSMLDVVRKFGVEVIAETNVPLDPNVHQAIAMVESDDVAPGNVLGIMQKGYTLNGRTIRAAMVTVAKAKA

One may read the Kd as the constant that tells how readily two partners part at equilibrium. For the substance DnaK (from UniProt P0A6Y8), the dissociation constant (Kd) is 11 nM in the series with GrpE (Escherichia coli) [1] and 220 nM with GrpE (Escherichia coli) [2].
